Experimental data from paper PMC9108660.

Columns and labels:
[1] = target: dCas9 (catalytically deactivated Cas9) (UniProt Q99ZW2); assay: magnetic bead pull-down, qPCR; details: 2 mM Mg2+; SPR: 2 mM MgCl2, 37 °C, 30 min, 2 µL DNA (up to 1000 ng/µL), dRNP on graphdiyne chip, rinse 2 mM MgCl2; bead assay: 2 mM MgCl2, 37 °C, 1 h; pH not stated
[2] = target: dCas9 (catalytically deactivated Cas9) (UniProt Q99ZW2); assay: SPR; details: SPR: 2 mM MgCl2, 37 °C, 30 min, 2 µL DNA (up to 1000 ng/µL), dRNP on graphdiyne chip, rinse 2 mM MgCl2, bead assay: 2 mM MgCl2, 37 °C, 1 h, pH not stated

Chain of UniProt Q99ZW2 (Q99ZW2 whole entry): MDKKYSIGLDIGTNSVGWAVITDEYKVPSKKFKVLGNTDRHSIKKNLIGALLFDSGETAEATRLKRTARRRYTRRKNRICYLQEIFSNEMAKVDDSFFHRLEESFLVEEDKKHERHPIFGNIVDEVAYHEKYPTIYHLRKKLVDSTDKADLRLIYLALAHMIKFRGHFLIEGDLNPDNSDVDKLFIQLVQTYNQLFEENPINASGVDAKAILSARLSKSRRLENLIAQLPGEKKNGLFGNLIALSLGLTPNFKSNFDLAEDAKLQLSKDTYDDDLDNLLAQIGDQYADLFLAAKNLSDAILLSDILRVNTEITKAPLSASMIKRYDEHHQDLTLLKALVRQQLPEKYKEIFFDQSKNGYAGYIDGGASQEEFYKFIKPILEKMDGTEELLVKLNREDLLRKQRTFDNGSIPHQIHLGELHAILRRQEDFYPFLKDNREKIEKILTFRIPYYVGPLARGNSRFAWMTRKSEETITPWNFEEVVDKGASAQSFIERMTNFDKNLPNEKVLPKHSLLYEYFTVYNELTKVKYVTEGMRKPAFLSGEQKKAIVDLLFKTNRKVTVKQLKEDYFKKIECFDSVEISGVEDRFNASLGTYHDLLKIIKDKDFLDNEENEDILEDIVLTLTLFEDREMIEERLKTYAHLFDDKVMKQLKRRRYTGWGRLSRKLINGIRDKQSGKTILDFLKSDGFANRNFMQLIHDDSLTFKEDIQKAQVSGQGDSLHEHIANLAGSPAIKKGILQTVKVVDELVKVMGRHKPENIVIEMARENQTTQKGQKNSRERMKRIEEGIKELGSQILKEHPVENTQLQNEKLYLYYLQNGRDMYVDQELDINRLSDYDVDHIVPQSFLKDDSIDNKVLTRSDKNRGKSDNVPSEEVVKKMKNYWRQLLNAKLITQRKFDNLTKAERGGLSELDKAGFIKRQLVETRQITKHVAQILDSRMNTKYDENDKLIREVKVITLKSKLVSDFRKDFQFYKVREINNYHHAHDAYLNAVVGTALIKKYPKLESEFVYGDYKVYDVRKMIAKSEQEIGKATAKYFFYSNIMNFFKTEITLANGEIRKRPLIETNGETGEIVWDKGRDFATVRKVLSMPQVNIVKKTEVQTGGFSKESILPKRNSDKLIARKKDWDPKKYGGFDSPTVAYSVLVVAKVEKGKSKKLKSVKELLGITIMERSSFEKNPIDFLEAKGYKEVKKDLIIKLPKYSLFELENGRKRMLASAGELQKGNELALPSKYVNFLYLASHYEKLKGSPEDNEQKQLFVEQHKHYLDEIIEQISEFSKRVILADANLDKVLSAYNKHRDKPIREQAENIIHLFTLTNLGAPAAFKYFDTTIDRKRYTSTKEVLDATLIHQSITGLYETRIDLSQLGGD

GGGUGUAGUAGCCGCCGUCGCGCGUUUUAGAGCUAGAAAUAGCAAGUUAAAAUAAGGCUAGU [sgRNA-GFP-Pos2 + pCDH-GFP-2k amplicon]
binding signal [1]: 99.4 % captured

GGGUGCCUGCAGGUCGCACCUAGGUUUUAGAGCUAGAAAUAGCAAGUUAAAAUAAGGCUAGU [sgRNA-Mut1 + pUC19-Mut1-0.3k amplicon]
binding signal [1]: 89.2 % captured

GGGUGUAGUAGCCGCCGUCGCGCGUUUUAGAGCUAGAAAUAGCAAGUUAAAAUAAGGCUAGU [sgRNA-GFP-Pos2 + pCDH-GFP-5k amplicon]
Kd [2]: 1.38 10^-8 M
binding signal [1]: 99.7 % captured

GGGUGCCUGCAGCUCCACACUAGGUUUUAGAGCUAGAAAUAGCAAGUUAAAAUAAGGCUAGU [sgRNA-Mut3 + pUC19-Mut3-0.8k amplicon]
Kd [2]: 7.61 10^-8 M
binding signal [1]: 99.8 % captured

GGGUGCCUGCAGCUCCACACUAGGUUUUAGAGCUAGAAAUAGCAAGUUAAAAUAAGGCUAGU [sgRNA-Mut3 + pUC19-Mut3-0.3k amplicon]
binding signal [1]: 99.8 % captured

GGGGUUCGCCUUCCGCCGCGUGGGUUUUAGAGCUAGAAAUAGCAAGUUAAAAUAAGGCUAGU [sgRNA-GFP-Pos3 + pCDH-GFP-5k amplicon]
Kd ([2]; 2 mM Mg2+, ka 0.11e5 M-1s-1, kd 6.5e-3 s-1): 591 nM

GGGUGCCUGCAGGUCGCACCUAGGUUUUAGAGCUAGAAAUAGCAAGUUAAAAUAAGGCUAGU [sgRNA-Mut1 + pUC19-Mut1-0.8k amplicon]
binding signal [1]: 69.8 % captured
